# From paper PMC6063439
# Assay: immunoblot of HEK293 lysate and culture medium
# Conditions: glycan lost; control: wild-type FMOD
protein,measurement,value
fibromodulin (FMOD): FMODΔGAG (protein) parent chain: MQWTSLLLLAGLFSLSQAQYEDDPHWWFHYLRSQQSTYYDPYDPYPYETYEPYPYGVDEGPAYTYGSPSPPDPRDCPQECDCPPNFPTAMYCDNRNLKYLPFVPSRMKYVYFQNNQITSIQEGVFDNATGLLWIALHGNQITSDKVGRKVFSKLRHLERLYLDHNNLTRMPGPLPRSLRELHLDHNQISRVPNNALEGLENLTALYLQHNEIQEVGSSMRGLRSLILLDLSYNHLRKVPDGLPSALEQLYMEHNNVYTVPDSYFRGAPKLLYVRLSHNSLTNNGLASNTFNSSSLLELDLSYNQLQKIPPVNTNLENLYLQGNRINEFSISSFCTVVDVVNFSKLQVLRLDGNEIKRSAMPADAPLCLRLASLIEI,expression_or_secretion,abolishes
